First the molecules themselves.
B1: Histone deacetylase 3 (Homo sapiens), O15379 (parent)
chain: MAKTVAYFYDPDVGNFHYGAGHPMKPHRLALTHSLVLHYGLYKKMIVFKPYQASQHDMCRFHSEDYIDFLQRVSPTNMQGFTKSLNAFNVGDDCPVFPGLFEFCSRYTGASLQGATQLNNKICDIAINWAGGLHHAKKFEASGFCYVNDIVIGILELLKYHPRVLYIDIDIHHGDGVQEAFYLTDRVMTVSFHKYGNYFFPGTGDMYEVGAESGRYYCLNVPLRDGIDDQSYKHLFQPVINQVVDFYQPTCIVLQCGADSLGCDRLGCFNLSIRGHGECVEYVKSFNIPLLVLGGGGYTVRNVARCWTYETSLLVEEAISEELPYSEYFEYFAPDFTLHPDVSTRIENQNSRQYLDQIRQTIFENLKMLNHAPSVQIHDVPADLLTYDRTDEADAEERGPEENYSRPEAPNEFYDGDHDNDKESDVEI

Variants of B1 are the subject of the first test. Particulars: with ncor2_human NCOR2, Q9Y618.
Chain of ncor2_human NCOR2, Q9Y618 (Q9Y618 whole entry): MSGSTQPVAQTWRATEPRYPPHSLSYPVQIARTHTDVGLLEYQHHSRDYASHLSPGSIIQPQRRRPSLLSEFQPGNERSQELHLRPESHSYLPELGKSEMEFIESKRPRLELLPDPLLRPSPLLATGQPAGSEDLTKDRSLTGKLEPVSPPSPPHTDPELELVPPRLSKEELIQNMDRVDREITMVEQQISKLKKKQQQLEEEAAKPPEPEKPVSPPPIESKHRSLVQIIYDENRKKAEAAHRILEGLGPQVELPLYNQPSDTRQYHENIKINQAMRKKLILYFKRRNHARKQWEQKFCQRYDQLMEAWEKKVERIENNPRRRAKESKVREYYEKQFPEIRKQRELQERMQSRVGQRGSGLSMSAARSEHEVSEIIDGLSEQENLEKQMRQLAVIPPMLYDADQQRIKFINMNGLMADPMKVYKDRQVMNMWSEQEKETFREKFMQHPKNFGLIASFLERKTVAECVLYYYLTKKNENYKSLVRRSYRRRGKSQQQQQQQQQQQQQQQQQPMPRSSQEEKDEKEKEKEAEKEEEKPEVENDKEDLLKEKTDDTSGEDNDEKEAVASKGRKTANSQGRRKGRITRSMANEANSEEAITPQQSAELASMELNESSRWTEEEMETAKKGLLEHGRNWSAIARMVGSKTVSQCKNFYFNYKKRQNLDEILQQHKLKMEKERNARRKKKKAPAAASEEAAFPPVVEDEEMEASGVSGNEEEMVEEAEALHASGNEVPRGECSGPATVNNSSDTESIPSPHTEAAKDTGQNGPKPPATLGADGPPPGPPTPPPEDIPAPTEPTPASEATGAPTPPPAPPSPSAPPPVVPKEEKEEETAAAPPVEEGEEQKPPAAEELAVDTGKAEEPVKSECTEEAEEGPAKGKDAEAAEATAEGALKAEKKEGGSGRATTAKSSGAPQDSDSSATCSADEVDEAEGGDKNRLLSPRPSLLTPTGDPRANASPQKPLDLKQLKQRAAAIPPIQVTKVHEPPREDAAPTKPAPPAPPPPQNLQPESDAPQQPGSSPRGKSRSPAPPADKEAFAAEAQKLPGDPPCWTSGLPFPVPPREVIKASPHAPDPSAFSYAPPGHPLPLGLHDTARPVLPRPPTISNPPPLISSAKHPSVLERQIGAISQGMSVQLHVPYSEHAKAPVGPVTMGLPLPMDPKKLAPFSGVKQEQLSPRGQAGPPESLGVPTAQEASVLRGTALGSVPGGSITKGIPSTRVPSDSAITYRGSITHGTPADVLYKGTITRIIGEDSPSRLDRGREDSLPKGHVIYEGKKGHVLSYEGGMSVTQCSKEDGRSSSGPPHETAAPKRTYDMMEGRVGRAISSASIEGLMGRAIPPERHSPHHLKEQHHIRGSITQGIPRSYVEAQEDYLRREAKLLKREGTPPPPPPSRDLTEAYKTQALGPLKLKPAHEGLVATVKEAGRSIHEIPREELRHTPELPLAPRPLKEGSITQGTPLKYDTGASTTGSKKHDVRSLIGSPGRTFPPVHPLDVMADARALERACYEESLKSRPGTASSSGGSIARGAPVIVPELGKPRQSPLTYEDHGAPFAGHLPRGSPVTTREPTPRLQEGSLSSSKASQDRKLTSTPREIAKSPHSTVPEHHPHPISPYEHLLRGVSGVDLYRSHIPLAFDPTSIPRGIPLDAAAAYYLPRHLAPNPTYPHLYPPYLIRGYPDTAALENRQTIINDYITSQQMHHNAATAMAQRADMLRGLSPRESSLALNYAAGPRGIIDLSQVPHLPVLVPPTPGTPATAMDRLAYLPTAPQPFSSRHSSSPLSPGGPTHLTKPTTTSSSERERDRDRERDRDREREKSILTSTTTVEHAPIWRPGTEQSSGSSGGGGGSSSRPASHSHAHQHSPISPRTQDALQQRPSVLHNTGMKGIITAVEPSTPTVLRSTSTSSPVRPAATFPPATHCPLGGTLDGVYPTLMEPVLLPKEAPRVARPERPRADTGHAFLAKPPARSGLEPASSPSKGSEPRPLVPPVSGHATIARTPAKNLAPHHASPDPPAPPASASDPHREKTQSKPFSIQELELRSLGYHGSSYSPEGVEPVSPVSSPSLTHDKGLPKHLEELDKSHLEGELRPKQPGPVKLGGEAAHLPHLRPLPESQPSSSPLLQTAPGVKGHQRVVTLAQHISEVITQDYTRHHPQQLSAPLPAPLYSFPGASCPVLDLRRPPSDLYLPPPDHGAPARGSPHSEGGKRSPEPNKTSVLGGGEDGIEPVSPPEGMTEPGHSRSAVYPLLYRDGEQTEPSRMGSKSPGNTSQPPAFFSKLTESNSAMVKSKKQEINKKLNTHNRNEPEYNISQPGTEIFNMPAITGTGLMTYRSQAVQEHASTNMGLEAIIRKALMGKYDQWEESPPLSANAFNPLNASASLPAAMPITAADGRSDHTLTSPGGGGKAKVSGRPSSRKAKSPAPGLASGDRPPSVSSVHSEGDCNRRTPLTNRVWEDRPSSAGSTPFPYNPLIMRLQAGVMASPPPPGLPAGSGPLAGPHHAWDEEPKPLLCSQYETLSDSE
Turning to MAKTVAYFYDPDVGNFCYGAAHPMIPHRLALTHSLVLHYGLYKKMIVFKPYQASQHDMCRFHSEDYIDFLQRVSPTNMQGFTKSLNAFNVGDDCPVFPGLFEFCSRYTGASLQGATQLNNKICDIAINWAGGLHHAKKFEASGFCYVNDIVIGILELLKYHPRVLYIDIDIHHGDGVQEAFYLTDRVMTVSFHKYGNYFFPGTGDMYEVGAESGRYYCLNVPLRDGIDDQSYKHLFQPVINQVVDFYQPTCIVLQCGADSLGCDPMGCFNLSIRGHGECVEYVKSFNIPLLVLGGGGYTVRNVARCWTYETSLLVEEAISEELPYSEYFEYFAPDFTLHPDVSTRIENQNSRQYLDQIRQTIFENLKMLNHAPSVQIHDVPADLLTYDRTDEADAEERGPEENYSRPEAPNEFYDGDHDNDKESDVEI [H17C;G21A;K25I;R265P;L266M], the “effect of a mutation on the interaction” value was “disrupting interaction”.

For the variant MAKTVAYFYDPDVGNFHYGAGHPMKPHRLALTHSLVLHYGLYKKMIVFKPYQASQHDMCRFHSEDYIDFLQRVSPTNMQGFTKSLNAFNVGDDCPVFPGLFEFCSRYTGASLQGATQLNNKICDIAINWAGGLHHAKKFEASGFCYVNDIVIGILELLKYHPRVLYIDIDIHHGDGVQEAFYLTDRVMTVSFHKYGNYFFPGTGDMYEVGAESGRYYCLNVPLRDGIDDQSYKHLFQPVINQVVDFYQPTCIVLQCGADSLGCDPLGCFNLSIRGHGECVEYVKSFNIPLLVLGGGGYTVRNVARCWTYETSLLVEEAISEELPYSEYFEYFAPDFTLHPDVSTRIENQNSRQYLDQIRQTIFENLKMLNHAPSVQIHDVPADLLTYDRTDEADAEERGPEENYSRPEAPNEFYDGDHDNDKESDVEI [R265P], the “effect of a mutation on the interaction” value is “disrupting interaction”.

MAKTVAYFYDPDVGNFHYGAGHPMKPHRLALTHSLVLHYGLYKKMIVFKPYQASQHDMCRFHSEDYIDFLQRVSPTNMQGFTKSLNAFNVGDDCPVFPGLFEFCSRYTGASLQGATQLNNKICDIAINWAGGLHHAKKFEASGFCYVNDIVIGILELLKYHPRVLYIDIDIHHGDGVQEAFYLTDRVMTVSFHKYGNYFFPGTGDMYEVGAESGRYYCLNVPLRDGIDDQSYKHLFQPVINQVVDFYQPTCIVLQCGADSLGCDPMGCFNLSIRGHGECVEYVKSFNIPLLVLGGGGYTVRNVARCWTYETSLLVEEAISEELPYSEYFEYFAPDFTLHPDVSTRIENQNSRQYLDQIRQTIFENLKMLNHAPSVQIHDVPADLLTYDRTDEADAEERGPEENYSRPEAPNEFYDGDHDNDKESDVEI [R265P;L266M]: the “effect of a mutation on the interaction” value is on record as “disrupting interaction”.

Consider MAKTVAYFYDPDVGNFCYGAAHPMIPHRLALTHSLVLHYGLYKKMIVFKPYQASQHDMCRFHSEDYIDFLQRVSPTNMQGFTKSLNAFNVGDDCPVFPGLFEFCSRYTGASLQGATQLNNKICDIAINWAGGLHHAKKFEASGFCYVNDIVIGILELLKYHPRVLYIDIDIHHGDGVQEAFYLTDRVMTVSFHKYGNYFFPGTGDMYEVGAESGRYYCLNVPLRDGIDDQSYKHLFQPVINQVVDFYQPTCIVLQCGADSLGCDRLGCFNLSIRGHGECVEYVKSFNIPLLVLGGGGYTVRNVARCWTYETSLLVEEAISEELPYSEYFEYFAPDFTLHPDVSTRIENQNSRQYLDQIRQTIFENLKMLNHAPSVQIHDVPADLLTYDRTDEADAEERGPEENYSRPEAPNEFYDGDHDNDKESDVEI [H17C;G21A;K25I], for which the “effect of a mutation on the interaction” value is “disrupting interaction”.

The next test covers variants of B1. Conditions: with ncor2_human NCOR2, Q9Y618. This is another data set of the same source.
For the variant MAKTVAYFYDPDVGNFCYGAAHPMIPHRLALTHSLVLHYGLYKKMIVFKPYQASQHDMCRFHSEDYIDFLQRVSPTNMQGFTKSLNAFNVGDDCPVFPGLFEFCSRYTGASLQGATQLNNKICDIAINWAGGLHHAKKFEASGFCYVNDIVIGILELLKYHPRVLYIDIDIHHGDGVQEAFYLTDRVMTVSFHKYGNYFFPGTGDMYEVGAESGRYYCLNVPLRDGIDDQSYKHLFQPVINQVVDFYQPTCIVLQCGADSLGCDPMGCFNLSIRGHGECVEYVKSFNIPLLVLGGGGYTVRNVARCWTYETSLLVEEAISEELPYSEYFEYFAPDFTLHPDVSTRIENQNSRQYLDQIRQTIFENLKMLNHAPSVQIHDVPADLLTYDRTDEADAEERGPEENYSRPEAPNEFYDGDHDNDKESDVEI [H17C;G21A;K25I;R265P;L266M], the “effect of a mutation on the interaction” value was “disrupting interaction”.

These data come from IntAct's records for PubMed 22230954.
